Six molecules from patent US20080020979A1 (WISCONSIN ALUMNI RESEARCH FOUNDATION, published 2008) can be followed below.

For assay [1], the target named is mouse αvβ3 integrin (mouse) (UniProt P43406). Kind of assay: cell-based or functional assay.
Assay [2] addresses T1, human αvβ3 integrin (human, UniProt P06756 31-1048; P05106 27-788). Kind of assay: cell-based or functional assay.
The target in a further assay is mouse αvβ5 integrin (mouse, UniProt P43406 31-1044; O70309 24-798). Description: cell-based or functional assay.
Chain of mouse αvβ5 integrin (P43406 31-1044, chain 1 of 2): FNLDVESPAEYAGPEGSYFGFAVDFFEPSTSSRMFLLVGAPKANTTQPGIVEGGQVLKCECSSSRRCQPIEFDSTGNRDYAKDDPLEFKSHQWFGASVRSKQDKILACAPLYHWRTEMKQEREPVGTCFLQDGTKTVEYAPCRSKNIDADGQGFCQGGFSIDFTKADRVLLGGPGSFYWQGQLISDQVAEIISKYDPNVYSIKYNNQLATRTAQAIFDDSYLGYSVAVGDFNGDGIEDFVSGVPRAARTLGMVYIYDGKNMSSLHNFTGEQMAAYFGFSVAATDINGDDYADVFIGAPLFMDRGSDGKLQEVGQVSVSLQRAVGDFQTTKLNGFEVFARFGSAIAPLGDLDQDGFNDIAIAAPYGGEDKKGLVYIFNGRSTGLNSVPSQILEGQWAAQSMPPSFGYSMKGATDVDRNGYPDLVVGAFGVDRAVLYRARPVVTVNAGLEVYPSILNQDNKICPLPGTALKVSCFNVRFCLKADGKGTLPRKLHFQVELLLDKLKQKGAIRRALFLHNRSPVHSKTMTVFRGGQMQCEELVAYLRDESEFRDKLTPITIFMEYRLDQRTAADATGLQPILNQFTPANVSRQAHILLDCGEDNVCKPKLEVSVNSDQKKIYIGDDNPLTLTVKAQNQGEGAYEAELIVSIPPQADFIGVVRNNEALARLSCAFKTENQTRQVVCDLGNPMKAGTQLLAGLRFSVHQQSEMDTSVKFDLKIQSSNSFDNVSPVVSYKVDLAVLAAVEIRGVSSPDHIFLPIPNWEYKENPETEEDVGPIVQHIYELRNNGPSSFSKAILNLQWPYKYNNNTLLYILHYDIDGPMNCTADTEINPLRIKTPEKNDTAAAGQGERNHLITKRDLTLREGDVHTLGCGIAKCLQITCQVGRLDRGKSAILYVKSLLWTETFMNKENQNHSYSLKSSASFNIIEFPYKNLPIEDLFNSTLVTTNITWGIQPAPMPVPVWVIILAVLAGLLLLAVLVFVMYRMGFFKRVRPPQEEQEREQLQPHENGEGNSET
Chain of mouse αvβ5 integrin (O70309 24-798, chain 2 of 2): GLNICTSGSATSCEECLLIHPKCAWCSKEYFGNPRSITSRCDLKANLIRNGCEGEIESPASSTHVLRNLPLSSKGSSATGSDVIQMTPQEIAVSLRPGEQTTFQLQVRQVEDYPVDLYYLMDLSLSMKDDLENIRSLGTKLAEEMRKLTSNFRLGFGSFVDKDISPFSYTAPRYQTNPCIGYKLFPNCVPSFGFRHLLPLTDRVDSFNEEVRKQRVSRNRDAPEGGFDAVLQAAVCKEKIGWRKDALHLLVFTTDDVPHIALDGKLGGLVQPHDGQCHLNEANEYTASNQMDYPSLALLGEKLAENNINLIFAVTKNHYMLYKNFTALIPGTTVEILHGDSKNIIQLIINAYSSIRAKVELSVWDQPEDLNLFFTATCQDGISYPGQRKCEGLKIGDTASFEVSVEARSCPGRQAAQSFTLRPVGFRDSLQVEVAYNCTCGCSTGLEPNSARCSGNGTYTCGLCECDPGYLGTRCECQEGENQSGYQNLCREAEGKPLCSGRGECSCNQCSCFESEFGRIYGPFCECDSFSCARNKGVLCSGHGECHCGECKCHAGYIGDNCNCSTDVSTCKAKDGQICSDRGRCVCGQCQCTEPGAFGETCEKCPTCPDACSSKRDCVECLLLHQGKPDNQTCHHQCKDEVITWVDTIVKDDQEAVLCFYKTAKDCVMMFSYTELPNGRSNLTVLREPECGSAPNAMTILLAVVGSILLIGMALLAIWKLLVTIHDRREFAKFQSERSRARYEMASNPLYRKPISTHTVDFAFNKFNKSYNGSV
The target of a further assay is human αvβ5 integrin (human, UniProt P06756 31-1048; P18084 24-799). Description: cell-based or functional assay.
Chain of human αvβ5 integrin (P06756 31-1048, chain 1 of 2): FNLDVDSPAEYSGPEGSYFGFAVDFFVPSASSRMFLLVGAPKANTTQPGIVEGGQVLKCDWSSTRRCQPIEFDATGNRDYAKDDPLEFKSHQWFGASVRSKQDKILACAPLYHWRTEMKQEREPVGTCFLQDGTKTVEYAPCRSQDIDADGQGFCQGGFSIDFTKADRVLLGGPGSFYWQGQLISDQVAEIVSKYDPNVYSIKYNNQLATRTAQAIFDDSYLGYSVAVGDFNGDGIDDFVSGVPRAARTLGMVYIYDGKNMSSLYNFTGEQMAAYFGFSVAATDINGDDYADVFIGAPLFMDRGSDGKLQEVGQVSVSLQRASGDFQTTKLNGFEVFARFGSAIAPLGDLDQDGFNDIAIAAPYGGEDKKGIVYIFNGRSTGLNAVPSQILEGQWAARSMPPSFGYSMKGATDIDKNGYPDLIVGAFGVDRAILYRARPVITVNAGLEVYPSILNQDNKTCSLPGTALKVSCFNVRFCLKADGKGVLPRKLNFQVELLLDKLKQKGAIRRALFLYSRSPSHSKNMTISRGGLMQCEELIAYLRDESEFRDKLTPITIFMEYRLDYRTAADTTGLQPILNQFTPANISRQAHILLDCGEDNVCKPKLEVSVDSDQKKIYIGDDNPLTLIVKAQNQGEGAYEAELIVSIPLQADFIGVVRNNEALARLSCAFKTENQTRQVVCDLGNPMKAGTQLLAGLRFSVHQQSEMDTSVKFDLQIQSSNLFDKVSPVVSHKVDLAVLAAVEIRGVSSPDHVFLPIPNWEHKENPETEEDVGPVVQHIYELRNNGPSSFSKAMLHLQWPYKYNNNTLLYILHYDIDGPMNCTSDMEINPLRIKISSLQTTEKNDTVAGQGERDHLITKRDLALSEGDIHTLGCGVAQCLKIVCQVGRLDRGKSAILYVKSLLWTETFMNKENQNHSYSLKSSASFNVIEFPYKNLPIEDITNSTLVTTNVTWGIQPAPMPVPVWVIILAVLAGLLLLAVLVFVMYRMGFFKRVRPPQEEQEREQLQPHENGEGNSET
Chain of human αvβ5 integrin (P18084 24-799, chain 2 of 2): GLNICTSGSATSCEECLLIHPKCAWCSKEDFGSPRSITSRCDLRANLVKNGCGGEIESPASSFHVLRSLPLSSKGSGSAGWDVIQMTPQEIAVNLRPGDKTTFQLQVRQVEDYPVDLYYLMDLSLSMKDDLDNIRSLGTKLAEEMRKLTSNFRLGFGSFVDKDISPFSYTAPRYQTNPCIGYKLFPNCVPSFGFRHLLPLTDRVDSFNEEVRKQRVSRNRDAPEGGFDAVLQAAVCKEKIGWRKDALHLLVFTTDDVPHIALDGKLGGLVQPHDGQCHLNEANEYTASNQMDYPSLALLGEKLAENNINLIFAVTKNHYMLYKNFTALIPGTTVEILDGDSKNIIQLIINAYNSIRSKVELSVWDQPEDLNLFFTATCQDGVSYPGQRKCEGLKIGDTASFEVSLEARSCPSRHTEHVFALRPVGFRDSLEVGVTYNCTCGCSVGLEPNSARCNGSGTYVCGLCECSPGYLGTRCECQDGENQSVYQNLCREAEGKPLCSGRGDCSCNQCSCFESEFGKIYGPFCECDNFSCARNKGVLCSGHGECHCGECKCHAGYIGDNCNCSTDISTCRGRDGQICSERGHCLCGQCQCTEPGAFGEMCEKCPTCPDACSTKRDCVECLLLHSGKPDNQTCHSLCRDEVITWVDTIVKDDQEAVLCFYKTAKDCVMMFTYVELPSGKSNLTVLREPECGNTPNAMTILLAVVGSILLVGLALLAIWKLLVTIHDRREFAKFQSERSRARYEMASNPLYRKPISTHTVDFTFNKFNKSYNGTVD
Assay [3] has as its target T1, human αvβ3 integrin. Description: co-immunoprecipitation from MDA-MB-231 cells, blot for β3 subunit.

A value given as a limit tells only on which side of the number the result lay.

T1 sequence (P06756 31-1048, chain 1 of 2): as the sequence (P06756 31-1048, chain 1 of 2) above
T1 sequence (P05106 27-788, chain 2 of 2): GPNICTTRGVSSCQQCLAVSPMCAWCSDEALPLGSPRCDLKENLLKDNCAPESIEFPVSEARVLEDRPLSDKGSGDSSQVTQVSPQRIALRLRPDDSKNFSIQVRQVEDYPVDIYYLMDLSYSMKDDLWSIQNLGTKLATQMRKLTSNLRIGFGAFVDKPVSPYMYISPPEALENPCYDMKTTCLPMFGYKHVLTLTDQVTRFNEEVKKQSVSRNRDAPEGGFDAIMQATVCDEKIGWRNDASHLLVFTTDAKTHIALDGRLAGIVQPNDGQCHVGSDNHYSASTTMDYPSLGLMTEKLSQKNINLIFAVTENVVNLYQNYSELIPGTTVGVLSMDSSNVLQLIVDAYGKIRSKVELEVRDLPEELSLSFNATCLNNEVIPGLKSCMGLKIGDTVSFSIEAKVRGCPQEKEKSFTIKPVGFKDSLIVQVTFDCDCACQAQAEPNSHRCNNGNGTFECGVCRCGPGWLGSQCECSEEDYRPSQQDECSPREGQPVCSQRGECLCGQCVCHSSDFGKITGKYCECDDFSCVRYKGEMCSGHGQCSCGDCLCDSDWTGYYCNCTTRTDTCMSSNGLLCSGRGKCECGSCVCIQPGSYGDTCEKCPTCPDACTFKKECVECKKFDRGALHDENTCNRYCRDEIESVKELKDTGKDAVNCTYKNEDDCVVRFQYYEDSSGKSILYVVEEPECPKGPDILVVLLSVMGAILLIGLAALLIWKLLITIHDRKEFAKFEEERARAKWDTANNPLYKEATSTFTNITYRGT

“GST-mS1ED (recombinant mouse Sdc1 ectodomain, amino acids 18-251, expressed as a fusion protein with GST) (from UniProt P18828 18-251)” returned a spreading of mouse aortic endothelial cells on VN in assay [1] of 1 µM. In the assay with human αvβ3 integrin [2], this molecule had an HMEC spreading on VN of 5 µM; an IC50, HAEC spreading on VN of 1000 nM; an IC50, HMEC-1 spreading on VN of 3000 to 10000 nM; a concentration that blocks endothelial cell attachment to VN altogether of 10 µM. Besides, in the assay with human αvβ3 integrin [2], the percent reduction of HMEC spreading on VN at 1 µM mS1ED was more than 80% and the percent reduction of HMEC spreading on VN at 3 µM mS1ED was more than 90%. Moreover, the spreading of mouse aortic endothelial cells on VN with mouse αvβ5 integrin was 1 µM. Also, in the assay with human αvβ5 integrin, the HMEC spreading on VN was 5 µM; the IC50, HAEC spreading on VN came out at 1000 nM; the IC50, HMEC-1 spreading on VN was 3000 to 10000 nM; the concentration that blocks endothelial cell attachment to VN altogether is 10 µM. Further, in the assay with human αvβ5 integrin, the percent reduction of HMEC spreading on VN at 1 µM mS1ED was more than 80% and the percent reduction of HMEC spreading on VN at 3 µM mS1ED was more than 90%.

B1: hSSTN 88-121 (amino acids 88-121 of the human Sdc1 sequence) (peptide)
peptide: ASTSTLPAGEGPKEGEAVVLPEVEPGLTAREQEA
Consider B1, for which, in the assay with human αvβ3 integrin [2], the “IC50, MDA-MB-231 attachment and spreading on VN” value was 100 to 300 nM.

B2: hSSTN 89-120 (amino acids 89-120 of the human Sdc1 sequence) (peptide)
peptide: STSTLPAGEGPKEGEAVVLPEVEPGLTAREQE
In the case of B2, in the assay with human αvβ3 integrin [2], the “IC50, MDA-MB-231 attachment and spreading on VN” value fell in the range of 100 to 300 nM.

B3: synstatin82-130 (SSTN82-130, 49-mer, amino acids 82-130 of mouse Sdc-1) (peptide)
peptide: SNTETAFTSVLPAGEKPEEGEPVLHVEAEPGFTARDKEKEVTTRPRETV
As for B3, in the assay with human αvβ3 integrin [2], the “IC50, HMEC-1 spreading on VN” value was approximately 100 nM; the “IC50, MDA-MB-231 spreading on VN” value was approximately 100 nM; the “fold lower concentration than mS1ED for equal inhibition, endothelial cells on VN” value amounted to 10 fold. For the same molecule, in the assay with mouse αvβ5 integrin, the “IC50, B82L fibroblast spreading on VN” value is approximately 100 nM. Moreover, in the assay with human αvβ5 integrin, the “IC50, HMEC-1 spreading on VN” value was approximately 100 nM and the “fold lower concentration than mS1ED for equal inhibition, endothelial cells on VN” value was 10 fold.

B4: mouse syndecan-1 mutant bearing deletion of amino acids 67-121 (receptor, UniProt P18828 23-311, looked up)
chain: QIVAVNVPPEDQDGSGDDSDNFSGSGTGALPDTLSRQTPSTWKDVTTRPRETVQLPITQRASTVRVTTAQAAVTSHPHGGMQPGLHETSAPTAPGQPDHQPPRVEGGGTSVIKEVVEDGTANQLPAGEGSGEQDFTFETSGENTAVAAVEPGLRNQPPVDEGATGASQSLLDRKEVLGGVIAGGLVGLIFAVCLVAFMLYRMKKKDEGSYSLEEPKQANGGAYQKPTKQEEFYA
notes: whole, on cells; also called mouse mutant lacking the active site
With B4, the binding result with human αvβ3 integrin [3] is recorded as “no binding”.

B5: SSTN88-117 (30-mer) (peptide)
peptide: FTSVLPAGEKPEEGEPVLHVEAEPGFTARD
On to B5, for which the “fold less active, HMEC-1 attachment and spreading on VN” value with human αvβ3 integrin [2] and with human αvβ5 integrin was 3 fold in each case.
